Key:
[1] = Competitive ELISA, relative CTS specificity, DIG as competitor; type: binding; conditions: competition with immobilized MBG-BSA; normalized to MBG = 100%
Procedure: (§1) The specificity (relative affinity) of anti-MBG antibodies for MBG relative to various cardiotonic steroids (CTSs) was determined in a competitive ELISA. Each anti-MBG antibody was tested for its binding to immobilized MBG in the presence of free MBG, resibufogenin (RBG), cinobufagin (CINO), ouabain (OUB) or digoxin (DIG) as a competitor. A constant amount of an anti-MBG antibody (typically 1-5 μg/mL) and varying concentrations of each CTS (from 10^−12M to 10^−5M) were pre-incubated before being added to the MBG-BSA-coated wells. After washing of the wells, an anti-human Fc, HRP-conjugated secondary antibody (at 1:5000 dilution) was added to the wells and incubated at 37° C. for 1 hr. After washing of the wells, an appropriate HRP reagent (e.g., TMB ultra, Thermo Fisher) was added to the wells. OD at 450 nm was measured by a microplate reader. MBG at 10 μM was assumed to be 100% competed, and MBG at 1 pM was assumed to be 0% competed. The data was plotted as a titration of antibody-antigen binding relative to free CTS concentration in the competition reaction to determine the free CTS concentration (μM) giving 50% maximal binding of antibody to immobilized MBG. The relative specificity of an antibody for a CTS was normalized to MBG=100%.

[2] = Competitive ELISA, relative CTS specificity, free MBG as competitor; type: binding; conditions: competition with immobilized MBG-BSA; normalized to MBG = 100%
Procedure: as §1

[3] = Competitive ELISA, free CTS competitors overall (summary and footnote); type: binding; conditions: competitors RBG, CINO, OUB, DIG; Table 2
Procedure: as §1

[4] = Competitive ELISA, relative CTS specificity, CINO as competitor; type: binding; conditions: competition with immobilized MBG-BSA; normalized to MBG = 100%
Procedure: as §1

[5] = Competitive ELISA, relative CTS specificity, OUB as competitor; type: binding; conditions: competition with immobilized MBG-BSA; normalized to MBG = 100%
Procedure: as §1

[6] = Competitive ELISA, relative CTS specificity, RBG as competitor; type: binding; conditions: competition with immobilized MBG-BSA; normalized to MBG = 100%
Procedure: as §1

[7] = ELISA avidity estimate on MBG-KLH; type: binding; conditions: wells coated with 2 μg/ml MBG-KLH; IgG
Procedure: (§2) The avidity of anti-MBG antibodies for MBG was estimated in an ELISA. Wells of a microtiter plate were coated with 2 μg/ml of either MBG-bovine serum albumin (BSA) or MBG-keyhole limpet hemocyanin (KLH). The wells were then blocked with 1% BSA. A test IgG antibody at varying concentrations (typically from about 0.0001 nM to about 25 nM) was added to the wells. The test IgG bound to immobilized MBG was detected with an anti-human Fc, horseradish peroxidase (HRP)-conjugated secondary antibody (Jackson ImmunoResearch). After washing of the wells, an appropriate HRP reagent (e.g., TMB ultra, Thermo Fisher) was added to the wells. Optical density (OD) at 450 nm was measured by a microplate reader. The concentration of test antibody at the midpoint of the binding curve is an estimate of avidity for MBG.

[8] = ELISA avidity estimate on MBG-BSA; type: binding; conditions: wells coated with 2 μg/ml MBG-BSA; IgG
Procedure: as §2

[9] = test system: PKC-δ in the nucleus of primary rat cardiac fibroblasts; assay: Inhibition of MBG-induced PKC-δ nuclear translocation (Western blot); conditions: MBG 2 nM; nuclei isolated 30 min later; FIG. 2a
Procedure: MBG was incubated with an anti-MBG antibody prior to addition to cultured primary rat cardiac fibroblasts. Nuclei were isolated 30 min later and analyzed for amount of PKC-6.

[10] = test system: human umbilical cord venous endothelial cells (HUVEC); assay: Reversal of MBG inhibition of HUVEC cell proliferation (3H-thymidine); type: cell-based; conditions: MBG 2 nM, 48 hr
Procedure: MBG (2 nM) was incubated with an antibody (20 μg/mL in FIG. 3a with human anti-MBG mAbs, or varying concentrations (2.5-10 μg/mL) in FIG. 3b with humanized anti-MBG mAbs) prior to addition to cultured human umbilical cord venous endothelial cells (HUVEC). After 48 hr, DNA synthesis was assessed by incorporation of ^3H-thymidine.
HUVEC cells in endothelial cell growth medium were plated onto 96-well plates. The next day, the cells were pretreated with various antibodies (2.5-20 μg/mL) and then incubated with 2 nM MBG for 48 hr. [^3H]-Thymidine was added to each well. [^3H]-Thymidine-labeled DNA was assayed by harvesting the cells and assaying for ^3H using a PerkinElmer Wallac Tailux liquid scintillation counter. […] Means were tested for significance using Student's t-test.

Molecule	Rel. CTS Specificity as % of MBG Binding: DIG [1] [%]	Rel. CTS Specificity as % of MBG Binding: MBG [2] [%]	reaction with CTS competitor molecules [3]	Rel. CTS Specificity as % of MBG Binding: CINO [4] [%]	Rel. CTS Specificity as % of MBG Binding: OUB [5] [%]	amount of PKC-δ in the nucleus, MBG plus antibody [9]	further results
2A-5A: human anti-MBG antibody, VH SEQ ID NO: 100, VL SEQ ID NO: 101 (antibody, listed as Homo sapiens) VH: QVQLQESGPGLVKPSETLSLTCTVSGGSISSSSYYWGWIRQPPGKGLEWIGSIYYSGSTYYNPSLKSRVTISVDTSKNQFSLKLSSVTAADTAVYYCARFSRGGPFLWGRGTLVTVSS light: QSVVTQPPSVSAAPGQKVTISCSGSSSNIGSYSVSWYQQLPGTAPKLLIYDNNKRPSGIPDRFSGSKSGTSATLGITGLQTGDEADYYCGTWDSSLSAYVFGSGTKVTVLGQPKANPTVTLFPPSSEELQANKATLVCLISDFYPGAVTVAWKADGSPVKAGVETTKPSKQSNNKYAASSYLSLTPEQWKSHRSYSCQVTHEGSTVEKTVAPTECS	2.5	100	reacted with the CTS competitors RBG, CINO and DIG	2.5	0		Rel. CTS Specificity as % of MBG Binding: RBG [6]: 10%
203/204: human anti-MBG antibody, VH SEQ ID NO: 30, VL SEQ ID NO: 31 (antibody, listed as Homo sapiens, V domains shown) VH: QLQLQESGPGLVKPSETLSLTCTVSGGSISSYYWGWIRQPPGKGLEWIGSIYYSGSTYYNPSLKSRVTISVDTSKNQFSLQLKSVTPEDTAVYYCARVRPPAATFDYWGQGTLVTVSS VL: QSVVTQPPSVSAAPGQKVSISCSGGSSNIGNNYVSWYQQLPGTAPRLLIYENNNRPSGIPDRFSGSKSGTSATLGITGLQTGDEADYYCGTWDSSLRAVVFGGGTKLTVL	0	100	reacted with CTS competitor RBG	0	0		Estimated avidity (KA) (antibody concentration at 50% maximal binding to antigen, or EC50), Antigen 2 (MBG-KLH) [7]: 0.20 nM; Estimated avidity (KA) (antibody concentration at 50% maximal binding to antigen, or EC50), Antigen 1 (MBG-BSA) [8]: 0.32 nM; Rel. CTS Specificity as % of MBG Binding: RBG [6]: 10%
H3L1: humanized anti-MBG antibody, VH H3 (SEQ ID NO: 11) with VL L1 (SEQ ID NO: 12) (antibody, V domains shown, Humanized VH sequence; Humanized VL sequence) VH: EVQLQESGPGLVKPSETLSLTCTVSGDSITSGYWNWIRQPPGKGLEYMGYISYSGTTYYNPSLKSRITISRDTSKNQYSLKLSSVTAADTAVYYCARARYGYGFDYWGQGTLVTVSS VL: DVVMTQSPLSLPVTLGQPASISCRSSQSIVHSNRNTYLEWFQQRPGQSPRRLIYKVSNRFSGVPDRFSGSGSGTDFTLKISRVEAEDVGVYYCFQGSHVPLTFGGGTKVEIK						reduced	
H2L1: humanized anti-MBG antibody, VH H2 (SEQ ID NO: 10) with VL L1 (SEQ ID NO: 12) (antibody, V domains shown, Humanized VH sequence; Humanized VL sequence) VH: EVQLQESGPGLVKPSETLSLTCTVSGDSITSGYWNWIRQPPGKGLEYIGYISYSGTTYYNPSLKSRVTISRDTSKNQFSLKLSSVTAADTAVYYCARARYGYGFDYWGQGTLVTVSS VL: DVVMTQSPLSLPVTLGQPASISCRSSQSIVHSNRNTYLEWFQQRPGQSPRRLIYKVSNRFSGVPDRFSGSGSGTDFTLKISRVEAEDVGVYYCFQGSHVPLTFGGGTKVEIK						to a lesser extent	
H2L2: humanized anti-MBG antibody, VH H2 (SEQ ID NO: 10) with VL L2 (SEQ ID NO: 13) (antibody, V domains shown, Humanized VH sequence; Humanized VL sequence) VH: EVQLQESGPGLVKPSETLSLTCTVSGDSITSGYWNWIRQPPGKGLEYIGYISYSGTTYYNPSLKSRVTISRDTSKNQFSLKLSSVTAADTAVYYCARARYGYGFDYWGQGTLVTVSS VL: DVVMTQSPLSLPVTLGQPASISCRSSQSIVHSNRNTYLEWYQQRPGQSPRLLIYKVSNRFSGVPDRFSGSGSGTDFTLKISRVEAEDVGVYYCFQGSHVPLTFGGGTKVEIK						to a lesser extent	MBG inhibition of HUVEC cell proliferation, humanized mAbs ([10]; antibody 2.5-10 μg/mL, FIG. 3b): significantly reduced
1B-6C: human anti-MBG antibody, VH SEQ ID NO: 87, VL SEQ ID NO: 88 (antibody, listed as Homo sapiens) VH: QVQLQESGPGLVKPSETLSLTCTVSGGSISSSSYYWGWIRQPPGKGLEWIGSIYYSGSTYYNPSLKSRVTISLDTSKNQFSLKLSSLTAADTAVYYCARVPAIRSSAIFDYWGQGTLVTVSS light: QSVVTQPPSVSAAPGQKVTISCFGSRSNIGNNYVSWYQQFPGTAPQLLIFDNNKRPSGIPDRFSGSKSGTSASLGITGVQTGDEAEYYCGAWDSSLSAGAVFGGGTKLTVLGQPKAAPSVTLFPPSSEELQANKATLVCLISDFYPGAVTVAWKADSSPVKAGVETTTPSKQSNNKYAASSYLSLTPEQWKSHRSYSCQVTHEGSTVEKTVAPTECS		100					
205/207: human anti-MBG antibody, VH SEQ ID NO: 53, VL SEQ ID NO: 54 (antibody, listed as Homo sapiens, V domains shown) VH: QLQLQESGPGLVKPSETLSLTCTVSGGSISSSSYYWGWIRQPPGKGLEWIGSIYYSGSTYYNPSLKSRVTISVDTSKNQFSLKLSSVTAADTAVYYCARFHTWAPRAFDIWGQGTMVTVSS VL: QSVVTQPPSVSAAPGQEVTISCSGSSSNIGNNYVSWYQQLPGTAPKLLIYDNNKRPSGIPDRFSGSKSGTSATLGITGLQTGDEADYYCGTWDSSLSALFGGGTKLTVL	0	100		0	0		
238/239: human anti-MBG antibody, VH SEQ ID NO: 41, VL SEQ ID NO: 42 (antibody, listed as Homo sapiens, V domains shown) VH: QLQLQESGPGLVKPSETLSLTCTVSGGSISSSSYYWGWIRQPPGKGLEWIGSIYYSGSTYYNPSLKSRVTISVDTSKNQFSLKLSSVTAADTAVYYCARVVVARTGTTISWFDPWGQGTLVTVSS VL: QAVLTQPSSLSASPGASASLTCTLRSGINVDTYRIYWYQQKPGSPPQYLLRYKSDSDKQQGSGVPSRFSGSKDASANAGILLISGLQSEDEADYYCVIWHSSAWVFGGGTKLTVL		100	reacted with the CTS competitor OUB		10	to a lesser extent	MBG inhibition of HUVEC cell proliferation, human mAbs ([10]; antibody 20 μg/mL, FIG. 3a): significantly reduced
R4CE-10H: human anti-MBG antibody, VH SEQ ID NO: 80, VL SEQ ID NO: 81 (antibody, listed as Homo sapiens) VH: QLQLQESGPGLVKPSQTLSLTCTVSGGSISSGGYYWSWIRQPPGKGLEWIGSIYHSGSTYYNPSLKSRVTISVDTSKNQFSLKLSSVTAADTAVYYCARVMYYYGSGSPYWYFDLWGRGTLVTVSS light: QSVVTQPPSVSAAPGQKVTISCSGSSSNIGKNFVSWYQQFPGTAPKFLIYENSKRPSGIPDRISGSKSGTSATLAITGLQTGDEADYYCGTWDSSLSAVVFGGGTKLTVLSQPKAAPSVTLFPPSSEELQANKATLVCLISDFYPGAVTVAWKADSSPVKAGVETTTPSKQSNNKYAASSY		100					

— patent US10654925B2, “Anti-marinobufagenin antibodies and uses thereof” (priority 2018, dated 2020)
